± gives the uncertainty stated by the source.
Assay: amyloid nucleation score (Sup35N fusion, yeast selection) (log enrichment); library NNK3; higher = more nucleation; inactive = no reads after selection
Procedure, shortened: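 Plasmid inserts were Illumina-sequenced at input and output from psi-negative yeast expressing Sup35N fused to peptides of 20 random codons. The yeast were induced with 100 μM copper sulfate for 24 hours and grown 7 days at 30°C on medium lacking adenine and uracil, and sequences with under 100 input reads were excluded. Nucleation score is the DiMSum log enrichment of output over input reads, centred on the mode score of non-aggregating sequences.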

| Substance | amyloid nucleation score |
| --- | --- |
| YICLYHLLVWWDRQFRGFNS | inactive |
| RSTVYWFWRSSELLALRLHR | inactive |
| LFLWKTTMTPGLHRSSVVGR | inactive |
| ASRPFFRPVRQVSEVLPGQW | 0.058 ± 1.1 |
| SVSGKRFDVMVLFLHSSKRL | inactive |
| VSTGTYFSVIKEEVRLGLLH | 0.537 ± 0.36 |
| SVWRECNGKFVSFASHFADY | inactive |
| WKGLL | inactive |
| IMSNTLIHYLHRMLSSALCY | inactive |
| DFRRANGEYWLTAAPMLIHT | 0.396 ± 0.28 |
| SICMNNLCVSWTMPYT | 1.5 ± 0.11 |
| IIIRGSSVLVVRLNDEGYVL | 0.216 ± 0.63 |
| YTVSFYIQLCTDRQISHRGI | 2.34 ± 0.071 |
| LSNHCARVF | inactive |
| FSGRYGTRLPLYSGRFKWFI | inactive |
| NLTQFYWSCGEVRVTAFYGA | 2.08 ± 0.079 |
| LARFMANLTGNC | inactive |
| MLVASGDTAENYSTSVYCV | inactive |
| FNPCRGCYETKFHVYRLSRL | 0.584 ± 0.28 |
| AEGLCCMANLWSCAGSRTYT | 0.947 ± 0.13 |
| TCFVLQNKYVSRCGCWMCYS | 2.12 ± 0.051 |
| TWVTAGYCVNIYRTRSWMK | inactive |
| KSYLVFDPWGPAKSLFYTDM | inactive |

| Substance | amyloid nucleation score |
| --- | --- |
| VYIMYLSGCCRCHVPMNEGT | 2.05 ± 0.073 |
| DCALAAGMK | inactive |
| DLQYLMLHVHNFYICDRYQP | inactive |
| ILSVYDFNWFWKAKRDLYIS | inactive |
| RFSNAMLMCLVTNVSC | 0.451 ± 0.61 |
| VSSWNSSMMIYMVLCIRMSG | inactive |
| CCARGGRVCRQLGLVSYTNV | inactive |
| HHKAEGAHVKITDLSFDVKS | inactive |
| VNVMWKPLGLHIVPMFAFGK | 1.13 ± 0.16 |
| LACPWLTLIGYVQIRCNFDG | inactive |
| SYRPDSCRLNTMNDFSSCCS | inactive |
| DVYKNPLSEQPSRYCTE | inactive |
| VFSDTRCVCRKRSSVFKIVS | inactive |
| FGELS | inactive |
| YRRYPVIR | inactive |
| MYQLLMFAYVT | inactive |
| SCWKTHSAKNSNGS | inactive |
| KFIVVGYLGTIPTHPVGVPY | 0.6 ± 0.25 |
| SANGMSNRRYSDHHLYVVSA | inactive |
| SGFYNWI | inactive |
| IYWLSTYRCIKSYSMST | inactive |
| SLVTFMLLMIKGMSGYFRTV | inactive |
| TFAMGLSARSISYCTNTRCP | 0.464 ± 0.4 |

| Substance | amyloid nucleation score |
| --- | --- |
| VHICKWVM | inactive |
| GDILGHRRHSVVRSRRQSLT | inactive |
| CLFRDDRNRVDI | inactive |
| GVFGESS | inactive |
| NALLAFPYQGSMHKCGLGRY | inactive |
| NTIDYHYKVSCSHGYSLQSY | inactive |
| QTLNERTWTGYDIHVRHVRR | inactive |
| FKFGLQLIRCMDFHWMF | inactive |
| IFQKIECLTGMGIVGCSTSM | inactive |
| YFLLYTVNGGTASTLNYV | 2.15 ± 0.093 |
| QFDFVLPVGYVFGDGYVLWV | inactive |
| LVVIG | inactive |
| ELFILHSGGGWCSGI | 0.926 ± 0.16 |
| YRFRRDNLWCTWSSYMYMYC | inactive |
| IVANGCRWQVRVPWGLTSKW | inactive |
| RVVPMVTVGKIRKNLMD | inactive |
| ILFLSLRSYSLNGFSDIMYY | inactive |
| HMLSNFGARVREYIAMFGRL | inactive |
| GFSYSWNLFILFGQQICWIW | inactive |
| SPLLGINYRVFNVCLLERR | 0.909 ± 0.21 |
| FGQSLAEIRFLFIPIDKMRR | inactive |
| KDHLHRRYMGRTAVLREIDI | inactive |
| AGVIAWVYSSG | inactive |

| Substance | amyloid nucleation score |
| --- | --- |
| YAGFTQNDNVKLYTGNPFHM | inactive |
| MHLLLQRIWVLQAK | inactive |
| SEVTSRNHTGYSRSRLLGMY | inactive |
| KAREVGIQWRKWSIIAWNNW | 1.45 ± 0.095 |
| ESFHMFFFQLLSYCFSNCGW | inactive |
| RSHQKEMCVNFNLPVNFSHR | inactive |
| TIYSLFSLYLGIWQAPASVY | -0.455 ± 0.53 |
| MELYPLLVGNFSIQKKVECN | inactive |
| WKEWLGMGLLVSNAGHKQGG | inactive |
| LLLVKSTI | -0.176 ± 0.56 |
| MKYAFRFCRPSVRWVYDPRL | inactive |
| PLDSECEKDGHDTPYDYVVL | inactive |
| SLMSGWN | inactive |
| VLCLLGSSVSS | inactive |
| VCRGQRISACQSRSVCGCWH | inactive |
| IYIHQDPVFKGCYWLRRGVE | inactive |
| VVEFRNFLGIM | inactive |
| CMLCTQLHNNRRKKSKMCWS | inactive |
| LEVWSRRYWCHRLFNSIAMM | inactive |
| NASCGDNVLLYLFKMTFCLG | 0.139 ± 0.25 |
| REVRTGLNLIPRRIVSNHTF | inactive |
| NIKFIEHLLSYSSTPQPLTC | inactive |
| CIAPILFPALAHQLLLAKGH | inactive |

| Substance | amyloid nucleation score |
| --- | --- |
| AFLSMSGNLLVVYSGEGGSP | -0.027 ± 0.35 |
| GGSLGHSRLSKDVSVEESAW | inactive |
| MVFLVVVWFVKNGWKCVYGS | inactive |
| CFLMCVAVVCRIRNYYWCTI | inactive |
| MVLNERFFYTSTTGVICVTC | 1.73 ± 0.064 |
| VYSEFWVHMLLLSFRVIYIL | inactive |
| CVTFFVISTHPHSCSLSN | 2.42 ± 0.083 |
| RFYSARGGKRARIHVRVKWD | -0.446 ± 0.55 |
| RSLYASLCVRIFDGLYCCMK | inactive |
| SCKGNVFVSSGWEFGAYFTG | 0.751 ± 0.23 |
| SLKARDVRSWSLSLLVQLAF | inactive |
| QALTFIMWETDTSHGTCLNG | 1.46 ± 0.07 |
| TITCCVYDN | 2.13 ± 0.053 |
| RPVVWYISRTSVVLDCAWGS | inactive |
| FIFAG | inactive |
| GSVTEGFVGLG | inactive |
| MFLCYNVLVVTESLGLAHLD | inactive |
| KINLLSCLPVLRYYWISSLA | inactive |
| YGCRRDIFKYSMTLLMDAID | inactive |
| FCVEIMSLSVRGCWGYSFGT | inactive |
| CARRNLAVNYKYWFVGEHYI | inactive |
| TFSQGSWRTESSLRDGGCLD | inactive |
| AKTSRMNFKNNFMCQGCKWS | -0.604 ± 0.88 |

| Substance | amyloid nucleation score |
| --- | --- |
| EVIVVKGHGVHIVFCVGSAS | inactive |
| YSMQVICISCVLRIDIGDVA | 0.89 ± 0.16 |
| LVDLLHTMYSCYLGYKSFRG | inactive |
| YRRELAKSHLYMSIWRNRLP | inactive |
| CWADSDSVSKKSRIA | inactive |
| HLFSNTWYTK | inactive |
| SIAIRVRAIIGKSRGKCPNG | 1.81 ± 0.092 |
| RSTCCWIR | inactive |
| MYSMVGNLTRSWEGIGLGLM | inactive |
| LVSHLIGFSCRFNPRSERFC | 1.29 ± 0.1 |
| FWSWNVWLRSGSPAISFHK | inactive |
| SNIGHM | inactive |
| FVLVGL | inactive |
| CANCMNNVCVSCGCSLQLTL | 2.89 ± 0.054 |
| SMNFLICMIWSIVS | 1.02 ± 0.21 |
| IGSAISGNYYTINNCDFDTS | inactive |
| MSPIDGDDSG | inactive |
| RKCRCYLTSFKDPALYLT | inactive |
| VDMRSDDLIMQFWQLLSDDV | inactive |
| VYCEPNMP | -0.163 ± 1.1 |
| FSRTRVTLV | inactive |
| QSASFRNGFKLLLMTS | inactive |
| TGVSVECLLLWSWSVVWRCM | inactive |

| Substance | amyloid nucleation score |
| --- | --- |
| AYNLSLNYDGHSSYWYFHTT | -0.134 ± 0.38 |
| TVVIVPNWPVCRGHDFGERC | inactive |
| RNHIALSLGWIQEDVIGSWN | 0.991 ± 0.13 |
| SILMTVYDGYHKRSKNIAQC | inactive |
| LNTKEYLLYKRICTSNANLL | -0.621 ± 1.1 |
| ASLRDAPILYDASE | inactive |
| CGISSILIAFCCNHYIVQWM | 1.92 ± 0.054 |
| QTVKVISPYPTMLTLCD | inactive |
| LCIFKVLF | 0.969 ± 0.16 |
| NRNRYMFLITITHY | inactive |
| RWSVSSQTMLSIINDISFFG | 0.099 ± 0.2 |
| YFLQTEAEVSFEQEVVAISL | inactive |
| LSYSRTGASC | inactive |
| SSDIIHGNDVRSLVRRDRSL | inactive |
| HNLVSSSSTCCRRHPCMAG | inactive |
| VGSAGVSVFVWRVCRFCEGN | -0.434 ± 1.1 |
| HMSVVSVFIRRMPNASSTRR | 0.562 ± 0.13 |
| WGVHCMSQDVRVWWLSLWGG | inactive |
| LQAQMYCLTTLWSWFGRVSR | inactive |

Source: the supplement of paper PMC12042874
